# Reference: PMC6736767
# Read-outs that look alike come from different tables or passages of the source.
# T1: BpuR (Borrelia burgdorferi, UniProt O51076 1-122)
# T1 sequence: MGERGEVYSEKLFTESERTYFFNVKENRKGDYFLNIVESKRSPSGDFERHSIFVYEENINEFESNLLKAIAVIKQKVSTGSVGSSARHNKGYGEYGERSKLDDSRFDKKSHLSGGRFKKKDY
# B1: sodA2 (ssRNA)
# RNA: UCAUGGCAAAAGUUAAAACAGGAGGUUUUUAUGUUUAAGCUGCCAGAACUUGGUUAUGAU
# B2: bpuR RNA (ssRNA)
# RNA: ACGUUAAAUGUAGUCAAGUACAAAAACUUGUGUGGAGGAAAUUGAUGGGAGAGAGAGGGGAAGUAUACU
# B3: sodA1 (ssRNA)
# RNA: AAUGAGCCUUGUUAUUGUGGAAGUGGGAAGAAAUAUAAAAAUUGUCAUGGCAAAAGUUA
# Key:
# [1] = target: T1, BpuR; test: EMSA
# [2] = target: T1, BpuR; test: EMSA; remark: listed apart in the source
binder,measurement,setting,value
B1,binding result,[1],no binding
B2,binding result,[2],binds
B3,binding result,[2],binds
